Where two headings read alike, the source gives them in different places.

Common to all, as to assay: EMSA
On the technique in general: In EMSA bound probe runs differently from free probe, usually more slowly.

In data set [1] the target is T1, Lsr2 (Mycobacterium tuberculosis, UniProt P9WIP7 1-112).
The target in data set [2] is T1, Lsr2. This is another data set of the same source.
The target of data set [3] is T1, Lsr2. This is another data set of the same source.

B1: C42 (dsDNA)
DNA 1: AAAAATCTCTAAAAAATCTCTAAAAATCTCTAAAAAATCTCT
DNA 2: AGAGATTTTTTAGAGATTTTTAGAGATTTTTTAGAGATTTTT
B1: the binding result in the data set with Lsr2 [1] is on record as “binds”.

B2: lmo promoter 104 bp (dsDNA)
DNA 1: TGCTGGTCAATTAGGCACTGCGTGACAATTTATCGAGTCGCACAACCGGATCATCCATCCGTTATTTACGTCAATTTAAACGGATGATCTATCCGCTGGCTCCC
DNA 2: GGGAGCCAGCGGATAGATCATCCGTTTAAATTGACGTAAATAACGGATGGATGATCCGGTTGTGCGACTCGATAAATTGTCACGCAGTGCCTAATTGACCAGCA
As to B2, the binding result with Lsr2 [2] is “binds”.

B3: lmo 26 bp fragment 3 (65% AT) (dsDNA)
DNA 1: ATCCATCCGTTATTTACGTCAATTTA
DNA 2: TAAATTGACGTAAATAACGGATGGAT
For the molecule B3, in the data set with Lsr2 [3], the binding result is reported as “binds”.

B4: lmo 26 bp fragment 2 (54% AT) (dsDNA)
DNA 1: AATTTATCGAGTCGCACAACCGGATC
DNA 2: GATCCGGTTGTGCGACTCGATAAATT
As for B4, in the data set with Lsr2 [3], the binding result is “binds”.

B5: lmo 26 bp fragment 1 (46% AT) (dsDNA)
DNA 1: TGCTGGTCAATTAGGCACTGCGTGAC
DNA 2: GTCACGCAGTGCCTAATTGACCAGCA
On to B5, for which the binding result with Lsr2 [3] is reported as “binds”.
